{"source": "paper PMC8939775", "about": "“Structures of the Omicron Spike trimer with ACE2 and an anti-Omicron antibody” (Science (New York, N.y.), 2022)", "target": "T1, SARS-CoV-2 wildtype (WT) spike extracellular domain trimer (proline substitutions 2P or 6P, mutated furin … (SARS-CoV-2, UniProt P0DTC2))", "T1 construct": "also called WT spike trimer", "conditions": "both partners purified", "data": [{"binder": "JMB2002 IgG (antibody, V domains shown, copies: 2 + 2) VH: QVQLVQSGAEVKKPGSSVKVSCKASGGTFSSYAISWVRQAPGQGLEWMGRIIPIFGTANYAQKFQGRVTITADESTSTAYMELSSLRSEDTAVYYCASLASYSSGWEDVFDIWGQGTMVTVSS VL: DIQMTQSPSSLSASVGDRVTITCRASQGISSWLAWYQQKPGKAPKLLIYDASNLETGVPSRFSGSGSGTDFTFTISSLQPEDIATYYCQQYDNLPLTFGGGTKVEIK", "values": [{"measurement": "Kd", "value": "0.5 ± 0.3", "unit": "nM"}]}, {"binder": "JMB2002 Fab (Fab, V domains shown, also called Fab from JMB2002) VH: QVQLVQSGAEVKKPGSSVKVSCKASGGTFSSYAISWVRQAPGQGLEWMGRIIPIFGTANYAQKFQGRVTITADESTSTAYMELSSLRSEDTAVYYCASLASYSSGWEDVFDIWGQGTMVTVSS VL: DIQMTQSPSSLSASVGDRVTITCRASQGISSWLAWYQQKPGKAPKLLIYDASNLETGVPSRFSGSGSGTDFTFTISSLQPEDIATYYCQQYDNLPLTFGGGTKVEIK", "values": [{"measurement": "Kd", "value": "12.2 ± 11.6", "unit": "nM"}]}]}
